Data on three proteins can be found in PMC7137648.

Common to all, as to conditions: glycan lost; control: wild-type SR-F1(20-421)
A short description of data set [1]: MALDI-TOF mass, SDS-PAGE, N-terminal sequencing.
Data set [2] can be described thus: limited tryptic and chymotryptic proteolysis, SDS-PAGE.
The nature of data set [3]: Ni-NTA purified yield from 293-F supernatant.

B1: SR-F1 (SREC-I, SCARF1): N289Q (protein)
parent chain: MGLGLLLPLLLLWTRGTQGSELDPKGQHVCVASSPSAELQCCAGWRQKDQECTIPICEGPDACQKDEVCVKPGLCRCKPGFFGAHCSSRCPGQYWGPDCRESCPCHPHGQCEPATGACQCQADRWGARCEFPCACGPHGRCDPATGVCHCEPGWWSSTCRRPCQCNTAAARCEQATGACVCKPGWWGRRCSFRCNCHGSPCEQDSGRCACRPGWWGPECQQQCECVRGRCSAASGECTCPPGFRGARCELPCPAGSHGVQCAHSCGRCKHNEPCSPDTGSCESCEPGWNGTQCQQPCLPGTFGESCEQQCPHCRHGEACEPDTGHCQRCDPGWLGPRCEDPCPTGTFGEDCGSTCPTCVQGSCDTVTGDCVCSAGYWGPSCNASCPAGFHGNNCSVPCECPEGLCHPVSGSCQPGSGSRDTALIAGSLVPLLLLFLGLACCACCCWAPRSDLKDRPARDGATVSRMKLQVWGTLTSLGSTLPCRSLSSHKLPWVTVSHHDPEVPFNHSFIEPPSAGWATDDSFSSDPESGEADEVPAYCVPPQEGMVPVAQAGSSEASLAAGAFPPPEDASTPFAIPRTSSLARAKRPSVSFAEGTKFAPQSRRSSGELSSPLRKPKRLSRGAQSGPEGREAEESTGPEEAEAPESFPAAASPGDSATGHRRPPLGGRTVAEHVEAIEGSVQESSGPVTTIYMLAGKPRGSEGPVRSVFRHFGSFQKGQAEAKVKRAIPKPPRQALNRKKGSPGLASGSVGQSPNSAPKAGLPGATGPMAVRPEEAVRGLGAGTESSRRAQEPVSGCGSPEQDPQKQAEEERQEEPEYENVVPISRPPEP
In the case of B1, the “other: proteolytic processing” value in data set [1] is “increases, extra loss of 2.3–2.6 kDa compared with the N382Q and N393Q mutants”. Besides, in data set [2], the structure_or_conformation result was “no change”. Further, the “expression_or_secretion, other: protein purified per 100 ml supernatant” value (from here on “expression_or_secretion … per 100 ml supernatant”) in data set [3] is on record as “decreases, 70 vs 450”.

B2: SR-F1 (SREC-I, SCARF1): N382Q (protein)
parent chain: MGLGLLLPLLLLWTRGTQGSELDPKGQHVCVASSPSAELQCCAGWRQKDQECTIPICEGPDACQKDEVCVKPGLCRCKPGFFGAHCSSRCPGQYWGPDCRESCPCHPHGQCEPATGACQCQADRWGARCEFPCACGPHGRCDPATGVCHCEPGWWSSTCRRPCQCNTAAARCEQATGACVCKPGWWGRRCSFRCNCHGSPCEQDSGRCACRPGWWGPECQQQCECVRGRCSAASGECTCPPGFRGARCELPCPAGSHGVQCAHSCGRCKHNEPCSPDTGSCESCEPGWNGTQCQQPCLPGTFGESCEQQCPHCRHGEACEPDTGHCQRCDPGWLGPRCEDPCPTGTFGEDCGSTCPTCVQGSCDTVTGDCVCSAGYWGPSCNASCPAGFHGNNCSVPCECPEGLCHPVSGSCQPGSGSRDTALIAGSLVPLLLLFLGLACCACCCWAPRSDLKDRPARDGATVSRMKLQVWGTLTSLGSTLPCRSLSSHKLPWVTVSHHDPEVPFNHSFIEPPSAGWATDDSFSSDPESGEADEVPAYCVPPQEGMVPVAQAGSSEASLAAGAFPPPEDASTPFAIPRTSSLARAKRPSVSFAEGTKFAPQSRRSSGELSSPLRKPKRLSRGAQSGPEGREAEESTGPEEAEAPESFPAAASPGDSATGHRRPPLGGRTVAEHVEAIEGSVQESSGPVTTIYMLAGKPRGSEGPVRSVFRHFGSFQKGQAEAKVKRAIPKPPRQALNRKKGSPGLASGSVGQSPNSAPKAGLPGATGPMAVRPEEAVRGLGAGTESSRRAQEPVSGCGSPEQDPQKQAEEERQEEPEYENVVPISRPPEP
Take B2: in data set [2], the structure_or_conformation result was “no change”. Also, the “expression_or_secretion … per 100 ml supernatant” value in data set [3] was “decreases, 85 vs 450”.

B3: SR-F1 (SREC-I, SCARF1): N393Q (protein)
parent chain: MGLGLLLPLLLLWTRGTQGSELDPKGQHVCVASSPSAELQCCAGWRQKDQECTIPICEGPDACQKDEVCVKPGLCRCKPGFFGAHCSSRCPGQYWGPDCRESCPCHPHGQCEPATGACQCQADRWGARCEFPCACGPHGRCDPATGVCHCEPGWWSSTCRRPCQCNTAAARCEQATGACVCKPGWWGRRCSFRCNCHGSPCEQDSGRCACRPGWWGPECQQQCECVRGRCSAASGECTCPPGFRGARCELPCPAGSHGVQCAHSCGRCKHNEPCSPDTGSCESCEPGWNGTQCQQPCLPGTFGESCEQQCPHCRHGEACEPDTGHCQRCDPGWLGPRCEDPCPTGTFGEDCGSTCPTCVQGSCDTVTGDCVCSAGYWGPSCNASCPAGFHGNNCSVPCECPEGLCHPVSGSCQPGSGSRDTALIAGSLVPLLLLFLGLACCACCCWAPRSDLKDRPARDGATVSRMKLQVWGTLTSLGSTLPCRSLSSHKLPWVTVSHHDPEVPFNHSFIEPPSAGWATDDSFSSDPESGEADEVPAYCVPPQEGMVPVAQAGSSEASLAAGAFPPPEDASTPFAIPRTSSLARAKRPSVSFAEGTKFAPQSRRSSGELSSPLRKPKRLSRGAQSGPEGREAEESTGPEEAEAPESFPAAASPGDSATGHRRPPLGGRTVAEHVEAIEGSVQESSGPVTTIYMLAGKPRGSEGPVRSVFRHFGSFQKGQAEAKVKRAIPKPPRQALNRKKGSPGLASGSVGQSPNSAPKAGLPGATGPMAVRPEEAVRGLGAGTESSRRAQEPVSGCGSPEQDPQKQAEEERQEEPEYENVVPISRPPEP
Consider B3, for which the structure_or_conformation result in data set [2] is recorded as “no change”. Also, the “expression_or_secretion … per 100 ml supernatant” value in data set [3] was “decreases, 200 vs 450”.
